Results published in publication PMC11999149.
Read-outs that look alike come from different tables or passages of the source.

Legend:
AR2A = test: ELISA; settings: IgG at its EC50; normalized using the signal of HCV1 at EC50
[1] = target: AR3A full-length IgG (reference); test: ELISA; settings: IgG at its EC50; normalized using the signal of HCV1 at EC50
[2] = target: membrane truncated soluble E2 (sE2, residues 384-645) of the H77 isolate (hepatitis C virus, isolate H77, genotype 1a) (UniProt P27958); test: SPR
[3] = target: membrane truncated soluble E2 (sE2, residues 384-645) of the H77 isolate (Hepatitis C virus genotype 1a, isolate H77) (UniProt P27958); test: SPR

| Substance | percent of parent (AR2A) [% WT] | percent of parent [1] [% WT] | further results |
| --- | --- | --- | --- |
| detergent-extracted full-length E1/E2 of HCV isolate H77 (genotype 1a) (from UniProt P27958) L438A | 88 | 4 | – |
| Fab B1_9 (group II) (from UniProt P01857) | – | – | Kd ([2]; Fab): 2.62 nM; koff ([2]; Fab): 0.000299 s⁻¹ |
| detergent-extracted full-length E1/E2 of HCV isolate H77 (genotype 1a) (from UniProt P27958) R630A | 43 | 84 | – |
| detergent-extracted full-length E1/E2 of HCV isolate H77 (genotype 1a) (from UniProt P27958) Y485A | 94 | 76 | – |
| detergent-extracted full-length E1/E2 of HCV isolate H77 (genotype 1a) (from UniProt P27958) F627A | 38 | 68 | – |
| detergent-extracted full-length E1/E2 of HCV isolate H77 (genotype 1a) (from UniProt P27958) L441A | 85 | 5 | – |
| detergent-extracted full-length E1/E2 of HCV isolate H77 (genotype 1a) (from UniProt P27958) N428A | 70 | 6 | – |
| detergent-extracted full-length E1/E2 of HCV isolate H77 (genotype 1a) (from UniProt P27958) G440A | 79 | 10 | – |
| detergent-extracted full-length E1/E2 of HCV isolate H77 (genotype 1a) (from UniProt P27958) K628A | 24 | 63 | – |
| detergent-extracted full-length E1/E2 of HCV isolate H77 (genotype 1a) (from UniProt P27958) L427A | 67 | 7 | – |
| Fab B1_11 (group I) (from UniProt P01857) | – | – | Kd ([2]; Fab): 0.485 nM; koff ([2]; Fab): 3.33e-05 s⁻¹ |
| Fab #2 (group I) (from UniProt P01857) | – | – | Kd ([2]; Fab): 0.19 nM; koff ([2]; Fab): 2.08e-05 s⁻¹ |
| detergent-extracted full-length E1/E2 of HCV isolate H77 (genotype 1a) (from UniProt P27958) W437A | 98 | 4 | – |
| AR3A Fab (reference) | – | – | Kd [3]: 10 nM |
| detergent-extracted full-length E1/E2 of HCV isolate H77 (genotype 1a) (from UniProt P27958) T625A | 28 | 12 | – |
| detergent-extracted full-length E1/E2 of HCV isolate H77 (genotype 1a) (from UniProt P27958) F442A | 71 | 2 | – |
| Fab A3_9 (from UniProt P01857) | – | – | Kd ([2]; Fab): 1.6 nM; koff ([2]; Fab): 0.000119 s⁻¹ |
| detergent-extracted full-length E1/E2 of HCV isolate H77 (genotype 1a) (from UniProt P27958) T425A | 77 | 6 | – |
| detergent-extracted full-length E1/E2 of HCV isolate H77 (genotype 1a) (from UniProt P27958) G436A | 123 | 22 | – |
| Fab A8_9 (group III) (from UniProt P01857) | – | – | Kd ([2]; Fab): 4.02 nM; koff ([2]; Fab): 0.000299 s⁻¹ |
| Fab A2_11 (group II) (from UniProt P01857) | – | – | Kd ([2]; Fab): 0.66 nM; koff ([2]; Fab): 4.41e-05 s⁻¹ |
| A3_9 full-length IgG1 (from UniProt P01857) | – | – | Kd [2]: 0.0448 nM; koff [2]: 1.02e-05 s⁻¹ |
| detergent-extracted full-length E1/E2 of HCV isolate H77 (genotype 1a) (from UniProt P27958) C429A | 43 | 3 | – |
